The record followed here is patent US20040052788A1 (IMMUNEX, published 2004).

T1: human CD30 (human, UniProt P28908 19-385, limits assumed)
T1 sequence (looked up): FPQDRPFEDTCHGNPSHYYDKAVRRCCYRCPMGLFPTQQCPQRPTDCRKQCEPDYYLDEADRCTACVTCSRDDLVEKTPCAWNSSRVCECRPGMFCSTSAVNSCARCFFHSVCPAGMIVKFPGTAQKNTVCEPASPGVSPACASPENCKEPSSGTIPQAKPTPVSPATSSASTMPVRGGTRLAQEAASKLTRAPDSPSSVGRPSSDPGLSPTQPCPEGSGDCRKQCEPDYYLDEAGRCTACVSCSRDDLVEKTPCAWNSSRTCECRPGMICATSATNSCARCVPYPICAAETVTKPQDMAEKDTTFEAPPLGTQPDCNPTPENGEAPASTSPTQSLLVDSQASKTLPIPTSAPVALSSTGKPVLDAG

B1: human LTβR (receptor, UniProt P36941 31-227, looked up)
chain: QAVPPYASENQTCRDQEKEYYEPQHRICCSRCPPGTYVSAKCSRIRDTVCATCAENSYNEHWNYLTICQLCRPCDPVMGLEEIAPCTSKRKTQCRCQPGMFCAAWALECTHCELLSDCPPGTEAELKDEVGKGNNHCVPCKAGHFQNTSSPSARCQPHTRCENQGLVEAAPGTAQSDTTCKNPLEPLPPEMSGTMLM
notes: also called TNFR-RP
B2: human TRAIL (TNF Related Apoptosis Inducing Ligand), as used in the receptor binding analysis (ligand)
chain: MAMMEVQGGPSLGQTCVLIVIFTVLLQSLCVAVTYVYFTNELKQMQDKYSKSGIACFLKEDDSYWDPNDEESMNSPCWQVKWQLRQLVRKMILRTSEETISTVQEKQQNISPLVRERGPQRVAAHITGTRGRSNTLSSPNSKNEKALGRKINSWESSRSGHSFLSNLHLRNGELVIHEKGFYYIYSQTYFRFQEEIKENTKNDKQMVQYIYKYTSYPDPILLMKSARNSCWSKDAEYGLYSIYQGGIFELKENDRIFVSVTNEHLIDMDHEASFFGAFLVG
notes: also called huTRAIL
B3: human CD27 (receptor, UniProt P26842 20-191, looked up)
chain: ATPAPKSCPERHYWAQGKLCCQMCEPGTFLVKDCDQHRKAAQCDPCIPGVSFSPDHHTRPHCESCRHCNSGLLVRNCTITANAECACRNGWQCRDKECTECDPLPNPSLTARSSQALSPHPQPTHLPYVSEMLEARTAGHMQTLADFRQLPARTLSTHWPPQRSLCSSDFIR
B4: human OX40 (receptor, UniProt P43489 29-214, looked up)
chain: LHCVGDTYPSNDRCCHECRPGNGMVSRCSRSQNTVCRPCGPGFYNDVVSSKPCKPCTWCNLRSGSERKQLCTATQDTVCRCRAGTQPLDSYKPGVDCAPCPPGHFSPGDNQACKPWTNCTLAGKHTLQPASNSSDAICEDRDPPATQPQETQGPPARPITVQPTEAWPRTSQGPSTRPVEVPGGRA
B5: human TNF-R (p80 form) (receptor, UniProt P20333 23-257, looked up)
chain: LPAQVAFTPYAPEPGSTCRLREYYDQTAQMCCSKCSPGQHAKVFCTKTSDTVCDSCEDSTYTQLWNWVPECLSCGSRCSSDQVETQACTREQNRICTCRPGWYCALSKQEGCRLCAPLRKCRPGFGVARPGTETSDVVCKPCAPGTFSNTTSSTDICRPHQICNVVAIPGNASMDAVCTSTSPTRSMAPGAVHLPQPVSTRSQHTQPTPEPSTAPSTSFLLPMGPSPPAEGSTGD

Assay [1] addresses B2. Nature of the assay: slide autoradiography (procedure of Gearing et al.). How it is done:
(§1) TRAIL was tested for ability to bind receptors of the TNF-R family of receptors. The binding analysis was conducted using the slide autoradiography procedure of Gearing et al. (EMBO J. 8:3667, 1989).

A further assay deals with T1, human CD30. The description is as above. How it is done: as §1

Regarding B1, the binding result in assay [1] is “no binding”.
B2: the binding result with human CD30 is reported as “no binding”.
Consider B3, for which the binding result in assay [1] is recorded as “no binding”.
Regarding B4, in assay [1], the binding result is “no binding”.
On the same count and under the same terms, in the case of B5 it was “no binding”.
